Assay results taken from US20020193575A1 (published 2002).

Molecular target: T1, recombinant E. coli human IL4 (non-glycosylated) (human, UniProt P05112 25-153)
T1 sequence (looked up): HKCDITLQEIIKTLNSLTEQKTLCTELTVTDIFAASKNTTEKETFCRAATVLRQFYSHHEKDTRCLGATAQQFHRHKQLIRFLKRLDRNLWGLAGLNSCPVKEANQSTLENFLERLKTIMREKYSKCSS
Experiment: cell-based or functional assay

B1: humanized 3B9 (IgG1) (antibody, V domains shown)
VH: QVTLRESGPALVKPTQTLTLTCTFSGFSLSTSGMGVSWIRQPPGKGLEWLAHIYWDDDKRYNPSLKSRLTISKDTSRNQVVLTMTNMDPVDTATYYCARRETVFYWYFDVWGRGTPVTVSS
VL: IVMTQSPDSLAVSLGERATINCKASQSVDYDGDSYMNWYQQKPGQPPKLLIYAASNLESGVPDRFSGSGSGTDFTLTISSLQAEDVAVYYCQQSNEDPPRFGGGTKVEIKR
  B cell proliferation (3H thymidine), IC50: 0.047 nM
